Test [1] concerns the target human FcγRIIIa 158Phe, biotinylated (UniProt P08637). The test can be described thus: SPR. Conditions: read off a plot.
The target in test [2] is human FcγRIIIa 158Val, biotinylated. The test can be described thus: SPR. Conditions: read off a plot.
Test [3] addresses human FcγRIIIa 158Phe, biotinylated (UniProt P08637). The test is described as follows: cSPR (cellular SPR, opsonized RBCs). Conditions: receptor density of 30 nM and opsonization concentration of 0.625 μg/ml; parent: est. 250; read off a plot.
For a further test, the target named is anti-kappa nanobody. The test can be described thus: cSPR (cellular SPR, opsonized RBCs). As to conditions: density of 1 nM and opsonization concentration of 0.625 μg/ml; parent: est. 610; read off a plot.
The target in test [4] is human FcγRIIa 131His, biotinylated (UniProt P12318). The test is described as follows: cSPR (cellular SPR, opsonized RBCs). As to conditions: receptor density of 30 nM and opsonization concentration of 2.5 μg/ml; parent: est. 310; read off a plot.
human FcγRIIa 131His, biotinylated, sequence (P12318 34-217): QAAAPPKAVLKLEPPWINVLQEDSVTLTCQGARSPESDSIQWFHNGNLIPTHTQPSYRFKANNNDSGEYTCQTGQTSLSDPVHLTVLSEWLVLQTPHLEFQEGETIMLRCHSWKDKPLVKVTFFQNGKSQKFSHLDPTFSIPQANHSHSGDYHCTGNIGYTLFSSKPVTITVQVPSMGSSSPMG
For test [5], the target named is human FcγRIIIa 158Val, biotinylated. The test can be described thus: cSPR (cellular SPR, opsonized RBCs). Conditions: receptor density of 10 nM and opsonization concentration of 1.25 μg/ml; parent: est. 200; read off a plot.
Test [6] concerns the target human FcγRIIa 131Arg, biotinylated. The test can be described thus: cSPR (cellular SPR, opsonized RBCs). As to conditions: receptor density of 30 nM and opsonization concentration of 0.625 μg/ml; parent: est. 210; read off a plot.
The target in test [7] is human FcγRIIIa 158Phe, biotinylated (UniProt P08637). The test can be described thus: SPR; IBIS MX96; biotinylated human FcγR spotted on a SensEye G-Streptavidin sensor at 1, 3, 10 and 30 nM; 2-fold dilution series of IgG (0.49 to 1000 nM) flowed over; Kd by equilibrium fitting, interpolated to Rmax 500. Background: Surface plasmon resonance follows binding to a sensor surface in real time, without labels.
human FcγRIIIa 158Phe, biotinylated, sequence (P08637 17-208): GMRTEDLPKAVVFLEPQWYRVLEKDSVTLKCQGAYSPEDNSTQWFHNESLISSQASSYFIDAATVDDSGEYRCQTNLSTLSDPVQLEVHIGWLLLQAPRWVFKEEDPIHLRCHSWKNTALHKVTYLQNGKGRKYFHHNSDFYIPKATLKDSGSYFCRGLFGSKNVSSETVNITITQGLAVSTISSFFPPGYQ

Test [8] addresses human FcγRIIIa 158Val, biotinylated (human). The description is as above.

For orientation: Kd means a measure of binding affinity in units of concentration. Consider anti-RhD IgG1 allotype IGHG1*03 R292W, for which the equilibrium dissociation constant (Kd) in test [1] (parent: est. 1.5e-6) was found to be 4400 nM; in test [2] (parent: est. 2.7e-7), 470 nM.
Consider anti-RhD IgG3 allotype IGHG3*01 R292W, for which the values for the Kd in test [1] (parent: est. 8.1e-7) and in [2] (parent: est. 1.7e-7) were 1900 nM and 340 nM, respectively.
“anti-RhD IgG3 allotype IGHG3*12 F296Y; P291L”: the other: avidity (AUC) is 50 in [3]; 640 with anti-kappa nanobody; 45 in [4]; 55 in [5]; 11 in test [6]. In [2] (parent: est. 2.5e-7), the dissociation constant (Kd) worked out at 210 nM.
For anti-RhD IgG3 allotype IGHG3*17 R292A, the results for the Kd in test [1] (parent: est. 9.2e-7) and in test [2] (parent: est. 2.1e-7) were 860 nM and 220 nM, respectively.
In the case of anti-RhD IgG3 allotype IGHG3*17 R292E, the Kd in test [1] (parent: est. 9.2e-7) turned out to be 2700 nM; in [2] (parent: est. 2.1e-7) it was 580 nM.
On to anti-RhD IgG3 allotype IGHG3*17 R292H, for which the Kd in test [1] (parent: est. 9.2e-7) was 810 nM; in test [2] (parent: est. 2.1e-7) it was 200 nM.
On to anti-RhD IgG3 allotype IGHG3*17 R292L, for which the figures for the dissociation constant Kd in [1] (parent: est. 9.2e-7) and in [2] (parent: est. 2.1e-7) were 860 nM and 210 nM, respectively.
On the same counts, the results for anti-RhD IgG3 allotype IGHG3*17 R292W are 2800 nM and 540 nM.
Take “anti-RhD IgG3 allotype IGHG3*18 (antibody)”: the fold reduction of affinity against other IgG3 allotypes in [7] and in [8] was 3 fold throughout.
With anti-RhD IgG3 allotype IGHG3*18 W292R, the Kd is 880 nM in [1] (parent: est. 2.6e-6) and 210 nM in test [2] (parent: est. 5.4e-7).
For “anti-RhD IgG3 allotype IGHG3*19 (antibody)”, the fold reduction of affinity against other IgG3 allotypes in [7] and in test [8] was 3 fold in each case.

The values are drawn from PMC7218058.
